Measured values as given in IntAct's records for PubMed 22493223.

B1: Mitotic spindle assembly checkpoint protein MAD1 (Homo sapiens), Q9Y6D9 (parent)
chain: MEDLGENTMVLSTLRSLNNFISQRVEGGSGLDISTSAPGSLQMQYQQSMQLEERAEQIRSKSHLIQVEREKMQMELSHKRARVELERAASTSARNYEREVDRNQELLTRIRQLQEREAGAEEKMQEQLERNRQCQQNLDAASKRLREKEDSLAQAGETINALKGRISELQWSVMDQEMRVKRLESEKQELQEQLDLQHKKCQEANQKIQELQASQEARADHEQQIKDLEQKLSLQEQDAAIVKNMKSELVRLPRLERELKQLREESAHLREMRETNGLLQEELEGLQRKLGRQEKMQETLVGLELENERLLAKLQSWERLDQTMGLSIRTPEDLSRFVVELQQRELALKDKNSAVTSSARGLEKARQQLQEELRQVSGQLLEERKKRETHEALARRLQKRVLLLTKERDGMRAILGSYDSELTPAEYSPQLTRRMREAEDMVQKVHSHSAEMEAQLSQALEELGGQKQRADMLEMELKMLKSQSSSAEQSFLFSREEADTLRLKVEELEGERSRLEEEKRMLEAQLERRALQGDYDQSRTKVLHMSLNPTSVARQRLREDHSQLQAECERLRGLLRAMERGGTVPADLEAAAASLPSSKEVAELKKQVESAELKNQRLKEVFQTKIQEFRKACYTLTGYQIDITTENQYRLTSLYAEHPGDCLIFKATSPSGSKMQLLETEFSHTVGELIEVHLRRQDSIPAFLSSLTLELFSRQTVA

Variants of: B1
Settings: with md2l1_human MAD2L1, Q13257
Chain of md2l1_human MAD2L1, Q13257 (Q13257 whole entry): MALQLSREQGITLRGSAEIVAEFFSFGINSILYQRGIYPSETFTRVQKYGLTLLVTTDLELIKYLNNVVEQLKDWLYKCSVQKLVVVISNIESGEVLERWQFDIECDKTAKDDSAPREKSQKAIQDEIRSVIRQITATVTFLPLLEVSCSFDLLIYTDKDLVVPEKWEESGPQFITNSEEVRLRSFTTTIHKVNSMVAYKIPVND

| effect of a mutation on the interaction | Variant |
| --- | --- |
| disrupting interaction strength | K541A;V542A;L543A;H544A;M545A |
